14 sequences from a protein production outcome set (Wang et al. 2014) can be followed below.

A short description of this series: label from the status in PepcDB records.
Consider “MASQVTAGSSGPVCFLTVGLRLPSARGQPVVSNFNQPRPPQRQRWVDSLLGVSLVALVVAAALPLLLPLVRLPGGSSARDRELAAAQATAFQTVLQRDPDNLSALRSLIGVYLQQQQLQAAIAPLQRLARLQPQQPAYRVLLAQTQAQLGDREAAAQTYRQILETAPTNLEALRGFTQLLLTQKQPTAAVDLLQKARQTDKITPADQVSIDLMLAQVYANQGQIDDAIALYDRSAQNNGRDFRPLLAKALLLKQQGDLQKATPIFQEAIAIAPAQYRDQIRQLSPASMPATPPTQPATKTPPTAPPPPPN”, for which the protein production entry is “failed”. Take “MRAMVSRLNSAVSRLFLFAFVAVMPTLVQAQSVNEGQSVRALTTDSSGALLVLRQSGLFALDSQNTTEIPLPPSDSGAQPRSMAKGGDESLYLAGPGLGIWRYDEASKRWQSLNDTLPDLGVTAIAAHATQPDTLYAYLGDGGMFRSRDDGAEWVKVDNGPREPVQAFLHSDMPGSMESGWLFAGTTRGVARSMDCFCFWGDAGELRGTVSAIDYDPWAPENVYAVIEGELHRSSDGGETWAGLEIPQAVTALTFSPTERLVVGTENGELLSQNASGEWVPVYE”: the protein production entry was “failed”. The result for “MHSREYPFMLASMMFDFACLQISSLWERLLGAIGDAAGNALGRVVEAIRTLFEGDPETRRKVSFSVAIIALSAKMAKADGVVNDAEVRAFRQIFDFPDEEAKNVARLYNLARQDVAGYEAYAERLAGLCGSGHANCEMLESVIDGLFHIAKADGLIHERELAFLGRIAEIFRITEDHFETIMARHVHMDGRDPYRVLGVSPSDDFLDIRKRYRSLVAEHHPDKLIARGVPMELHAAANERMAALNAAYAAIEKERRVA” reads “failed”; that for “MSDPSPIPARGRIASGGLVFLTVTTVAWGLSWPVTKYLISQWPPLPLRGLTGIAGSLALFGYAALRGDSLAVPRDQRLRLVISAFFNVTLWMAVMGLALLWLPAGETAVIAYTMPVWTALLAWPLLGERLTLRRVAALALAFGGIAALMGAAGFAASMTKLPGILLALTGALGFALGTIFLKRFPIALPGATSAAWQIGLGCIPVAVIGLAFEIPHVSVLTPLGWAGLVYLVVIQFCIAYVCWFAALQRLPASVAAIGTMATPVIGVVASAVALHEPLGVGQIAALVMTLTGVALATRS”, “failed”; that for “MNLANIVQRGWEALGAGDFDTLVTDYVEKMIFIMPGQADVLKGRQAFRSALDNLGEILPPGFEITGLRQLEGENEIVSIVEWKSDKMIASQLSVLFKFEGDQIYEERWFVDTEQWKSVF”, “not failed”.

With “MTMPHAFSRQPATHRSGRFPRSRALLLASLLAAGLASLPAWAAAPATRTAQAAPEGSSRAAVQLEKSRPRGNLLATDRTDLPAVPLSEDIMYRVLASEVSLQRGLVEPAYRTYLGLAQDTRDPRFAQRATEIAFLTRSPSQALTAARLWVELAPTSMPARQVQQLLMVATGQWSEVEPMLQAQLNKVSPGQRAEAILQLQQQMSKSNDPAGAVSALQRLTTHDAQRPETHLALARAKVVAKDNTGALSELDTALKLRPGYEDAAILAAELRADSDPDAAISGLRTFLKAAPASIDGHLALARMYLVRNQNDQARAEFEALRKIAPTDPRIPLALGLLNLQQRQYDSAEQYLKEYVAQAAKSPSLSPEPGYQGLAQVAEEKRDYAGAITWLDKIAGASNGDGDGQVALAAGIKRAQLLGKLRRIDEAQQAFDELIADTEDVPDGPRRQALMDGIRQAEVGMLMDAKAYGRARARVNDLLRTSPDSVEYTYQLSMLEEHDGHYDNMETLLRKVIDLRPGQAIGYNALGYSLADRNIRLQEAQELLEKAVSLAPDDPYIADSLGWVKYRRGDLPAATDILRKAWAAAPQAEIGAHLGEVLWQSGKQDDARKVWTEAAKLDINDTTLRETLHRFSQPLPDAPTSAN”, the protein production result is reported as “failed”. For “MKAALLDQVARVGKALANGRRLQILDLLAQGERAVEAIATATGMNLTTASANLQALKSGGLVEARREGTRQYYRIAGEDVARLFALVQVVADEHLADVAVLEHHHHHH”, the protein production result is “failed”.

In the case of “MLRYSLLVLLGACSYGILAIFVKLAYAEGFSLGEVIGSQYLFGWIILLAITLLFSRHRVPLKQALLLFVAGTSASFTGIFYYASLKTVPASIAIILLFQFVWVGIIIEAVATKTLPSREKVISVIFLLVGTFLSSGLLEQSAGAFDTTGIILGLLSAVTFATYIFVSGKVAVEVPSLPRGVLLMTGALTLVMIVFPPTFIFNGAISQGLWKYGLGLGTFSIVIPSIAFTIGIPKIGSGLATILGAAELPVTTIMSVFVLKEAVLSSQWFGVSLILIGIAIPQIAYAMRGRYRKHHTHKKVAA”, the protein production result is reported as “failed”.

For “MSGSLRDSAIDHFNKTISLMQKRQNKEALEELEKAEEAAKQAKANDILIHTVNLRGQLMLTLGALDEVLRICGFASNFFADILLKDPENEFFQQSFQMNLNNLGTTGNFYHNTGRFPQAKKAYETGLGITLKLLQSSPQDDFLQNYTGTTLNNLGNLLSDMGRIEDAKNRYEKALEMREKLLEKDPENVAYQSYVGGTLNNLGNLLKNMGRIEDAKNRYEKALEMREKLLEKDPENVAYQSYVAMTLNNLGNLLKNMGRIEDAKNKYEKALEMREKLLEKDPENVAYQSDVAMTLNNLGTLLSDLGKIEDAKNRYEKALEIYEKLLENDPENVAYQSYVAMALNNLGNLLKNMGRIEDAKNRYEKALEMREKLLENDPENVAYQSDVAMTLNNLGTLLSDMGRIEDAKNRYEKALEIYEKLLEKDPENIAYQSDIGGTLNNLGTLLSDMGRIEDAKNRYEKALEIYEKLLEKDPENIAYQSEVGGTLNNLGTLLSDMGRIEDAKNRYEKALEIYEKLLEKDPENIAYQSEVGTMLNNLGNLLSDMGRIEDAKNRYKKALEIYEKLLEKDPENIAYQSYVGGTLNNLGNLLSDMGRIEDAKNRYKKALEIYEKLLEKDPENVAYQSYVGTMLNNLGTLLSDMGRIEDAKNRYKKALEIYEKLLEKDPENVAYQSYVGGTLNNLGNLLSDMGRIEDAKNRYKKALGIYEKLLEKDPGNLAYHSEVNTIQCKVKKVKGSGRC”, the protein production entry was “failed”.

For “LETSWIKPGQASWEWWNDAAPYGPDVNFVSGYNLETYKYYIDFASKYGIRYIIMDEGWAKSTRDPYTPNAKVDVHELIRYAEKKNVGIVLWLTWLTVENNMDLFKTFSEWGVKGVKIDFMDRSDQWMMNFYERVAAEAAKYKLFVDFHGSVSPKGLEYKYPNVLSYEGVRGMEQMGGATPDNSIFMPFMRNAVGAMD”, the protein production entry was “not failed”. The result for “MAKMIILPKLVQKSVVSPKQTSQERVVTSTFSPPKPAGENISVQRRCELSEYHASGHVISHLPPPFAVAKPTPTTSLLPQPVRLINADAEDASCSSTPSWRIKKSLTCVCFNRKRAYERICSNLTPLQEERLKRLRKRMKNYYDASRPDHQDALRALWSATYPDEKLQDLISDQWKNMGWQGKDPSTDFRGAGFISLENLLFFAKTFSTSFQRLLNKQGGKRAAWEYPFAVAGVNITFMIMQMLDLEASKPRSFIRLVFLQMLSESEWAFDLLYCVAFVVMDKQWLDKNATYMEFNDVLRCTRGQLERELMMDDVFRIEDMPSFSLLS” reads “failed”; that for “MSLKIKHEHIRMAMNAWAHPDGEKVPAAEITRAYFELGMTFPELYDDSHPEALARNTQKIFRWVEKDTPDAVEKIQALLPAIEKSMPPLLVARMRSHSSAYFRELVETRERLVRDADDFVAVAIAGFNQMNRGGPAGNIVAVHEGHHHHHH”, “not failed”. The result for “MSLLTEVETYVLSIIPSGPLKAEIAQKLEDVFAGKNTDLEALMEWLKTRPILSPLTKGILGFVFTLTVPSERGLQRRRFVQNALNGNGDPNNMDRAVKLYKKLKREITFHGAKEVALSYSTGALASCMGLIYNRMGTVTTEVAFGLVCATCEQIADSQHRSHRQMATITNPLIRHENRMVLASTTAKAMEQMAGSSEQAAEAMEVANQARQMVQAMRTIGTHPNSSAGLRDNLLENLQAYQKRMGVQMQRFK” reads “not failed”.

“MFIGGAIISFLFLFGYMWKEAHSNRIRHVTLSFPHFPDNGPPLTIFFISDIHRRSVSCRMLETVKGKADLVVIGGDLAEKGVPAARVRENVRRLQTVAPVYFVWGNNDDEVDYDLQSLLEEERVYVLKNKAEVWEHGGVPIALIGVGDVSRKEADIARALEHVPPESFRILACHNPAIIARLEDEQHISLVLSGHTHGGQIRLFSFGLYEKGGLKWHGNTALFTSNGYGTTGVPLRLGAPAETHLIKIVPGKLATEKKCLSKTGKTMLEHHHHHH”: the protein production entry is “failed”.
